Test results taken from patent publication US10562947B2, “Compositions and methods for preventing or treating diseases, conditions or processes characterized by aberrant fibroblast proliferation and extracellular matrix deposition” (MOERAE MATRIX, INC., priority 2011, dated 2020).

Key:
Test in all cases: Kinase Profiling Assay
Format in all cases: biochemical
Conditions in all cases: 100 μM peptide
[1] = biological target: SAPK2a(T106M)(h) (Homo sapiens, UniProt Q16539, T106M)
How it was run: (§1)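 Specificity of the MK2-directed peptides is examined by measuring activity of 266 human kinases, every determination performed in duplicate.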

[2] = biological target: CHK2(R145W)(h) (Homo sapiens, UniProt O96017, R145W)
How it was run: as §1

[3] = biological target: T1, TAO3(h) (Homo sapiens, UniProt Q9H2K8)
T1 sequence (Q9H2K8 1-898): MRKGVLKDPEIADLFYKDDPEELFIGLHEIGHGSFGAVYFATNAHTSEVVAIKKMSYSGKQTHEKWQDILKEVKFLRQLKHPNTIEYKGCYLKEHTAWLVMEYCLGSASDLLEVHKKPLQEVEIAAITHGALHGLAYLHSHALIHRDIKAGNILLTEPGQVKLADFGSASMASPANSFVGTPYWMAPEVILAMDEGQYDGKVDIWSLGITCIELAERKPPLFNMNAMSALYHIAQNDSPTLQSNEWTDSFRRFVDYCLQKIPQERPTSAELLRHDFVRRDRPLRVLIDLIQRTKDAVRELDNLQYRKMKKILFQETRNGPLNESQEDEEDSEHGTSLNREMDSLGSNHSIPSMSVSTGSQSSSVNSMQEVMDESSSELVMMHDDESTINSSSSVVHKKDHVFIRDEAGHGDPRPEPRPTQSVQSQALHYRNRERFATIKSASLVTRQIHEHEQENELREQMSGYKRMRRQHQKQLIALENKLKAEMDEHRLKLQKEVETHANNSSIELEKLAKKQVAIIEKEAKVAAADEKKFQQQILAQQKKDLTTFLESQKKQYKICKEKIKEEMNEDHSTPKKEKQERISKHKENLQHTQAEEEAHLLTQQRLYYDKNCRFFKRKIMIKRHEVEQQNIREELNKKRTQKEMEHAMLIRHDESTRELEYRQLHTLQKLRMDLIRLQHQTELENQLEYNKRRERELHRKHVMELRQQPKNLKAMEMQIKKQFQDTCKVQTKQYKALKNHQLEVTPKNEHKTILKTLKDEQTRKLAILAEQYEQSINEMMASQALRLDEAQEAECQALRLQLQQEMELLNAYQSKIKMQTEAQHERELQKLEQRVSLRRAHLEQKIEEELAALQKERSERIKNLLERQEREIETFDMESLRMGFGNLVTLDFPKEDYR
How it was run: as §1

[4] = biological target: CK2(h) (Homo sapiens, UniProt P68400)
How it was run: as §1

[5] = biological target: PDGFRα(V561D)(h) (Homo sapiens, UniProt P16234, V561D)
How it was run: as §1

[6] = biological target: MSSK1(h) (Homo sapiens, UniProt Q9UPE1)
How it was run: as §1

[7] = biological target: ErbB4(h) (Homo sapiens, UniProt Q15303)
How it was run: as §1

[8] = biological target: T2, SAPK3(h) (Homo sapiens, UniProt P53778)
T2 sequence (P53778 1-367): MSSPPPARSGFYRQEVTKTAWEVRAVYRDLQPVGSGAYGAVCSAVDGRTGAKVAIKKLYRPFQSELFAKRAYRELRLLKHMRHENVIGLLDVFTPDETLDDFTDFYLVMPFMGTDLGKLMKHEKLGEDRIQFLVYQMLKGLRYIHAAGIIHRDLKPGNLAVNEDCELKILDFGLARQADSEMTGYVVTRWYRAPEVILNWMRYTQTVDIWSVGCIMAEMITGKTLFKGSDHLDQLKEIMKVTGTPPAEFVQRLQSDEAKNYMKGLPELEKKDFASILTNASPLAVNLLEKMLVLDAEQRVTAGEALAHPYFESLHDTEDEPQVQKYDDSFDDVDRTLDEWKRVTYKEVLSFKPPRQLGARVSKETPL
How it was run: as §1

[9] = biological target: T3, PRAK(h) (Homo sapiens, UniProt Q8IW41)
T3 construct: purchased Millipore (IC50 Profiler Express service)
T3 sequence (Q8IW41 1-473): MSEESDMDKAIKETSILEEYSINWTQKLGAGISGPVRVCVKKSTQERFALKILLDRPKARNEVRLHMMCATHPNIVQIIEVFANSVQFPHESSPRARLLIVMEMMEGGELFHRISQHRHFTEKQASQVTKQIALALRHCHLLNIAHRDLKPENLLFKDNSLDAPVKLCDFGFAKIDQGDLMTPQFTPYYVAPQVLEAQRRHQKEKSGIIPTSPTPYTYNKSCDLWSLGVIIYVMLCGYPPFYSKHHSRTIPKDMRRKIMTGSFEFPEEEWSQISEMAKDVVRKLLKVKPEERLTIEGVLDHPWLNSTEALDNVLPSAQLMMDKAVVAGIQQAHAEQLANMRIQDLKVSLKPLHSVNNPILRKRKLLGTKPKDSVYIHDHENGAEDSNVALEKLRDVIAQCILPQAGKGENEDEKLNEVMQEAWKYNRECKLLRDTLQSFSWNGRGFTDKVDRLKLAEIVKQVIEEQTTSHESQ
How it was run: as §1

[10] = biological target: EGFR(L858R)(h) (Homo sapiens, UniProt P00533, L858R)
How it was run: as §1

Sequence of CK2(h) (P68400 whole entry): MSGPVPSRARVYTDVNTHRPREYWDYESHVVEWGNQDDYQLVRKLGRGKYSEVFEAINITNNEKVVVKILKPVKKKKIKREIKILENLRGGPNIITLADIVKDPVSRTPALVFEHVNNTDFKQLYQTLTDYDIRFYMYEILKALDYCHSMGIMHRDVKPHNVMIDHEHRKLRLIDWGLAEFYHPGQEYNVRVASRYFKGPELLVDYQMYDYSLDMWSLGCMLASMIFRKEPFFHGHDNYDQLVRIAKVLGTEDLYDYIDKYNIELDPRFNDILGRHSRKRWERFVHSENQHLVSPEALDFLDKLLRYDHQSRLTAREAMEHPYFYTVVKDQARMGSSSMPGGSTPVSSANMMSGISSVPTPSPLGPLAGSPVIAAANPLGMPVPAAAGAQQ
Sequence of CK2(h) (P67870 whole entry partner): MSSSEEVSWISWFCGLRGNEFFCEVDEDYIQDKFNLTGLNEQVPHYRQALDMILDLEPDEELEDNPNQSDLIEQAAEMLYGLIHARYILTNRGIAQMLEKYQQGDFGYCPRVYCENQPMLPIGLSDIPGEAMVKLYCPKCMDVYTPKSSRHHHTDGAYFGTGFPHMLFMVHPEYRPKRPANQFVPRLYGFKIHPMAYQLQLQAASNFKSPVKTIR
Sequence of PDGFRα(V561D)(h) (P16234 24-1089 V561D): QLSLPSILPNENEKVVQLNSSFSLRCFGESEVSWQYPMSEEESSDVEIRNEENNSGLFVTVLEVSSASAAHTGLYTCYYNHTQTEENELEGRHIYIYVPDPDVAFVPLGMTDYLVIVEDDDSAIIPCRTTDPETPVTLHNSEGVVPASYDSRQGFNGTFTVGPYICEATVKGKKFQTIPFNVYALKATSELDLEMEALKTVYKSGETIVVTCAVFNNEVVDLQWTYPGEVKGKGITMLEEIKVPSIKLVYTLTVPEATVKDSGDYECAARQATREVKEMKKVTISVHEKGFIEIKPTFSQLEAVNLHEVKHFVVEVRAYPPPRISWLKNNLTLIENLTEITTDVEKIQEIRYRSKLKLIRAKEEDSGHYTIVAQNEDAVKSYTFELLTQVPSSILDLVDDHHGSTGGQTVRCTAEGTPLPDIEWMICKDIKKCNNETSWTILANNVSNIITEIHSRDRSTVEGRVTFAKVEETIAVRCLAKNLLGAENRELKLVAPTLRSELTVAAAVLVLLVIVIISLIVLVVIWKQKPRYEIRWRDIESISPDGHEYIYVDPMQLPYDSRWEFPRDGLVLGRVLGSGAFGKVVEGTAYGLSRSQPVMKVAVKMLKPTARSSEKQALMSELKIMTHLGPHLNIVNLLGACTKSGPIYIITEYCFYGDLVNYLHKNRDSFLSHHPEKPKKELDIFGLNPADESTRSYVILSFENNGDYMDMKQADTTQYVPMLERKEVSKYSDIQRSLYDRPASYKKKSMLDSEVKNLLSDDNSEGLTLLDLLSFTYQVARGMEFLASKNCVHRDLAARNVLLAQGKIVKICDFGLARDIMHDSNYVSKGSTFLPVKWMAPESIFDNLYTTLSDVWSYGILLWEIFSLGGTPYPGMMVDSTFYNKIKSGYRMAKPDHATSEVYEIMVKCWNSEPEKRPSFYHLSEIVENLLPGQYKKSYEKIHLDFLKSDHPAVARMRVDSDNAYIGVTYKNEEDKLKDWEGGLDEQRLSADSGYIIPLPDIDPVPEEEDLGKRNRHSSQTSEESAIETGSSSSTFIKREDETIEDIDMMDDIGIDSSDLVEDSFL
Sequence of ErbB4(h) (Q15303 26-1308): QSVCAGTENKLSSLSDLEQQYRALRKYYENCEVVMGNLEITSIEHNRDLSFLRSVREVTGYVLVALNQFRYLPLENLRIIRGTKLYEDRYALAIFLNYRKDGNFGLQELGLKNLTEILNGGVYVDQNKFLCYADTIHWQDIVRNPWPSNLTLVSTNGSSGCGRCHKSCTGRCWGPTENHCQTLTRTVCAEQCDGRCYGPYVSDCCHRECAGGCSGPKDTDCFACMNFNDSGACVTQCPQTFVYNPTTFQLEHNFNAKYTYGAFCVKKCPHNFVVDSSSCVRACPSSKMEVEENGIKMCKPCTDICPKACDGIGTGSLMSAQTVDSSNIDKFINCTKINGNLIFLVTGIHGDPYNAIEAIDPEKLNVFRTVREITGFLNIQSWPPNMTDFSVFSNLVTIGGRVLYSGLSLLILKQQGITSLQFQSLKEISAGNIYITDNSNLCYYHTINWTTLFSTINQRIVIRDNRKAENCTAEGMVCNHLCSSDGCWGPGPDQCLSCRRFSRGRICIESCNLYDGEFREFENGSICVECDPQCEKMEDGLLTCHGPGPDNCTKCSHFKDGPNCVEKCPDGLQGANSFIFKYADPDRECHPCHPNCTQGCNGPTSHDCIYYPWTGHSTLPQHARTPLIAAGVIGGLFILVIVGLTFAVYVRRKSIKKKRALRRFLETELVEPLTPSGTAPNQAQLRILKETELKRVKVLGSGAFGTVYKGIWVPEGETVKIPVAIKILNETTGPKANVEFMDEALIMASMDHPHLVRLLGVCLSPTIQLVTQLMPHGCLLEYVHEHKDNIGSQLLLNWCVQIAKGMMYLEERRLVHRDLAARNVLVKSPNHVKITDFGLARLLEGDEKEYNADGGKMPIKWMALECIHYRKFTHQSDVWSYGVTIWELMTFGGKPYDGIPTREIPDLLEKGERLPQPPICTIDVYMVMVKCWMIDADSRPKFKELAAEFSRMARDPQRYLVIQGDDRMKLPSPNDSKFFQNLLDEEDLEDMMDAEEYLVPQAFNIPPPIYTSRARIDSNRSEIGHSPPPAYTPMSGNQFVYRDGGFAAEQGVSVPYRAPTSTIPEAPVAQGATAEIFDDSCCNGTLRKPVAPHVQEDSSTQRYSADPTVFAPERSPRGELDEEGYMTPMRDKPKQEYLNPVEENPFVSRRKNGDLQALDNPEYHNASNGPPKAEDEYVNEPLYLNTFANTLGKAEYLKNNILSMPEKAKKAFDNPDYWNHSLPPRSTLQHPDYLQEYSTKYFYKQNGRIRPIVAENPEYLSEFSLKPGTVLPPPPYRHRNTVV
Sequence of MSSK1(h) (Q9UPE1 whole entry): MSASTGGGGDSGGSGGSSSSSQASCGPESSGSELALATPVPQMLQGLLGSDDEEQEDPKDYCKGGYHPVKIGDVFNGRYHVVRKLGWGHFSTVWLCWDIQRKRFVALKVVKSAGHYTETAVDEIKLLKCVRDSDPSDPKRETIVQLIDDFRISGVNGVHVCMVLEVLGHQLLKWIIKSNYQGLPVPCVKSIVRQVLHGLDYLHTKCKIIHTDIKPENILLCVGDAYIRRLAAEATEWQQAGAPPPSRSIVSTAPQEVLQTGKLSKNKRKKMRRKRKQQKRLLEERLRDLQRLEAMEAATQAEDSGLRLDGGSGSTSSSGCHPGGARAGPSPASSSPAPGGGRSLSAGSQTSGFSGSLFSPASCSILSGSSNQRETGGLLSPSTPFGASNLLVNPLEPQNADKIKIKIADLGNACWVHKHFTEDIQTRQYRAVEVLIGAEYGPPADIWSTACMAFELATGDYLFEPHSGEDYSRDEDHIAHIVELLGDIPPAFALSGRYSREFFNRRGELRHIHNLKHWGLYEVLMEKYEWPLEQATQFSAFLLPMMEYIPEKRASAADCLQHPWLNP
Sequence of CHK2(R145W)(h) (O96017 whole entry R145W): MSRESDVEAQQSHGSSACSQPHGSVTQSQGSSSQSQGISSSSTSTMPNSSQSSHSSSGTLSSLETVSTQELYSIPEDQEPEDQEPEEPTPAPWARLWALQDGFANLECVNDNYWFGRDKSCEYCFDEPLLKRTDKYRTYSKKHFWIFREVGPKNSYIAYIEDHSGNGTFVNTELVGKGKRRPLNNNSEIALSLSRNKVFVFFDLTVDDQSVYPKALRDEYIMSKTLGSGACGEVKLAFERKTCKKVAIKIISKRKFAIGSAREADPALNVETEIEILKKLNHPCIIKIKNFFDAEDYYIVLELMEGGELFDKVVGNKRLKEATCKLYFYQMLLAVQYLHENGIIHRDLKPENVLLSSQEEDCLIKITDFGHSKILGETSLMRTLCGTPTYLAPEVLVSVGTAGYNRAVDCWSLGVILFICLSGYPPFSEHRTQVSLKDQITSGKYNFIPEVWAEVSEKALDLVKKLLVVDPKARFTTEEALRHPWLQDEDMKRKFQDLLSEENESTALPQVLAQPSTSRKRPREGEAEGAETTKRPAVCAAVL
Sequence of SAPK2a(T106M)(h) (Q16539 whole entry T106M): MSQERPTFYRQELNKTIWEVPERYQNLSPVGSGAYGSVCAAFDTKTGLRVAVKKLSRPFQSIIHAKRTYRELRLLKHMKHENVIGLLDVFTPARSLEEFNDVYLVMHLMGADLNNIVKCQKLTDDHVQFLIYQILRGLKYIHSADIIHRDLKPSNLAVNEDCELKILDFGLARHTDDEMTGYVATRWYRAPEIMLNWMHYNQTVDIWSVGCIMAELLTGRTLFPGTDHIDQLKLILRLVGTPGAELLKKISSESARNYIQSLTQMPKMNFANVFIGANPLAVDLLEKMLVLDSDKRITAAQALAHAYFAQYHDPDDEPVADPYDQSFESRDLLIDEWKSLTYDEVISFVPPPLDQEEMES

Sequence	SAPK2a(T106M)(h) % activity [1]	CHK2(R145W)(h) % activity [2]	TAO3(h) % activity [3]	CK2(h) % activity [4]	PDGFRα(V561D)(h) % activity [5]	MSSK1(h) % activity [6]	ErbB4(h) % activity [7]	SAPK3(h) % activity [8]	PRAK(h) % activity [9]	EGFR(L858R)(h) % activity [10]
FAKLAARLYRKALARQLGVAA [MMI-0300]	97%	33%	77%	90%	82%	77%	40%	84%	128%	–
HRRIKAWLKKIKALARQLGVAA (Mammalian) [MMI-0500]	32%	3%	12%	93%	146%	22%	2%	24%	95%	26%
KAFAKLAARLYRKALARQLGVAA [MMI-0400]	99%	31%	67%	101%	100%	75%	0%	79%	118%	52%
YARAAARQARAKALNRQLGVA (Mammalian) [MMI-0200]	100%	81%	–	83%	–	100%	82%	97%	–	120%
